8 compounds from patent US5717058A, “Peptide inhibitors of tax-dependent transcription” (priority 1994, dated 1998) can be followed below.

“Also recorded” adds a separate entry of the source. No end group written: not given here.

Data set [1] is described as follows: solubility in aqueous solution. It counts as physicochemical.
A further data set concerns the target T1, Tax-CREB interaction (Homo sapiens, UniProt P16220).
T1 construct: made in house
In words: EMSA, inhibition of Tax-mediated enhancement of CREB binding to HTLV-I 21 bp repeat DNA. The note with it: for fold enhancement: 200 nM Tax. From the text:
The HTLV-I transactivator Tax enhances the binding of CREB to the 21 bp repeat sequences contained in the HTLV-I LTR (Zhao and Giam (1992) PNAS 89:7070-7074; Franklin et al. 1993 J. Biol. Chem. 268:21225-21231; Wagner and Green, 1993 Science 262:395-399). We are testing whether peptides representing portions of the primary sequence of Tax can disrupt the Tax-CREB interaction as measured by EMSA.
Purified recombinant CREB was isolated as previously published (Franklin et al. 1993 J. Biol. Chem. 268:21225-21231) and active DNA-binding CREB was purified by heparin-agarose chromatography. Purified recombinant TaxH6 (contains a six-histidine purification tag at the C-terminus of Tax) was isolated an purified as previously published (Zhao and Giam (1991) PNAS 88:12445-11449; Franklin et al. 1993 J. Biol. Chem. 268:21225-21231). Peptides were synthesized and purified as described in Example 1. The third HTLV-I 21 bp repeat (Seq. ID. No. 43) was cloned into the Bgl II site of pUC19. The 70 bp DNA probe fragment was excised with Kpn I and Hind III, phosphatased and gel purified.
EMSA reactions contained 0.1-2.0 nM [^32 P]end-labeled double stranded site 3 probe, 5-50 ng poly (dI-dC) carrier DNA, 1-5 nM purified recombinant CREB, 100-200 nM purified recombinant TaxH6, 15 mM HEPES pH 8.0, 1.5% DMSO, 25 mM Tris-HCl pH 7.9, 6.25 mM MgCl2, 0.5 mM EDTA, 0.5 mM DTT, 60-120 mM KCl, and 10% (v/v) glycerol, and candidate peptide inhibitors in a 20 μl reaction volume. CREB was incubated with the peptides or mock buffer (5% DMSO 50 mM HEPES pH 8.0) for 2-5 min. at room temp. then TaxH6 and DNA mixture were added. The complete reaction mixture was incubated 10-20 min. further at room temp. then analyzed on 5% non-denaturing polyacrylamide gels (49:1, acrylamide:N,N-methylene bisacrylamide). The electrophoresis buffer contained 0.04M Tris, 0.306M glycine, pH 8.5, and 0.1% Nonidet P-40. Gels were dried were autoradiographed. Relative amounts of protein-DNA complex were quantitated using Phosphor Image Analysis.
The primary amino acid sequence of Tax was divided into 29 peptides 20 amino adds in length with an overlap of eight amino acids (see Detailed Description of the Invention and Example 1). The number of the first amino acid in each peptide corresponds to its position in the primary sequence of Tax. Six peptides were tested by EMSA for inhibition of Tax-mediated enhancement. The percentage of radiolabeled DNA probe shifted into protein-DNA complexes in each reaction was quantitated by phosphorimage analysis. Fold enhancement was calculated by dividing the amount of probe shifted in each reaction by the amount of probe shifted in reactions containing CREB, DNA and mock peptide buffer (Table 1). Reactions in Table 1 contained 0.5 nM radiolabeled DNA probe, 10 ng poly dIdC, 1.25% v/v DMSO, 12.5 mM HEPES pH 8.0, 25 mM Tris pH 7.9, 6.25 mM MgCl2, 75 mM KCl, 0.5 mM EDTA, 0.5 mM DTT, 10% v/v glycerol, and CREB, Tax and peptide as indicated in a final volume of 20 μL.
Reactions in Table 2 contained 0.5 nM radiolabeled DNA probe, 10 ng poly dIdC, 1.75% v/v DMSO, 17.5 mM HEPES pH 8.0, 25 mM Tris pH 7.9, 6.25 mM MgCl2, 75 mM KCl, 0.5 mM EDTA, 0.5 mM DTT, 10% v/v glycerol, and CREB, Tax and peptide as indicated in a final volume of 20 μL. Protein-DNA complexes were quantitated by phosphorimage analysis. Fold enhancement was calculated by dividing the amount of complex formed in each reaction by the amount of complex formed in a reaction containing CREB, DNA, mock Tax buffer and mock peptide buffer.
Reactions in Table 3 contained 0.5 nM radiolabeled DNA probe, 10 ng poly dIdC, 1.75% v/v DMSO, 17.5 mM HEPES pH 8.0, 25 mM Tris pH 7.9, 6.25 mM MgCl2, 75 mM KCl, 0.5 mM EDTA, 0.5 mM DTT, 10% v/v glycerol, and CREB, Tax and peptide as indicated in a final volume of 20 μL. Amount of complex was quantitated by densitometry (PDI). […]

T1 sequence (P16220 whole entry): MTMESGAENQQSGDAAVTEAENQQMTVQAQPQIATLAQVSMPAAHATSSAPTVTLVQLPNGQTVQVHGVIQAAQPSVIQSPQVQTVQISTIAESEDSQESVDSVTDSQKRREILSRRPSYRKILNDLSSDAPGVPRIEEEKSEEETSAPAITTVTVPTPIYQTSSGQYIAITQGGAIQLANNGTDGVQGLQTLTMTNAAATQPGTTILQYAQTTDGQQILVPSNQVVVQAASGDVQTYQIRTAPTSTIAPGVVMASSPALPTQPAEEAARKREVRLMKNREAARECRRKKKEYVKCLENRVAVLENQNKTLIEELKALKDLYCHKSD

As to `CC(C)C[C@H](NC(=O)[C@H](CC(C)C)NC(=O)[C@H](Cc1c[nH]cn1)NC(=O)[C@H](CC(C)C)NC(=O)[C@H](CO)NC(=O)[C@H](Cc1c[nH]cn1)NC(=O)[C@H](Cc1ccccc1)NC(=O)[C@@H](N)CO)C(=O)N[C@@H](Cc1ccccc1)C(=O)N[C@@H](CCC(=O)O)C(=O)N[C@@H](CCC(=O)O)C(=O)N[C@@H](CCC(=O)O)C(N)=O` [Seq ID No. 54, SFHSLHLLFEEE], the “solubility in aqueous solution, in words” value in data set [1] was “more soluble”.

`CC(C)C[C@H](NC(=O)[C@H](CC(C)C)NC(=O)[C@H](Cc1c[nH]cn1)NC(=O)[C@H](CC(C)C)NC(=O)[C@H](CO)NC(=O)[C@H](Cc1c[nH]cn1)NC(=O)[C@H](Cc1ccccc1)NC(=O)[C@H](CO)NC(=O)CNC(=O)CNC(=O)[C@H](CCC(=O)O)NC(=O)[C@@H](N)CCC(=O)O)C(=O)N[C@@H](Cc1ccccc1)C(=O)N[C@@H](CCC(=O)O)C(N)=O` [Seq ID No. 55, EEGGSFHSLHLLFE]: the “solubility in aqueous solution, in words” value in data set [1] was “more soluble”.

Turning to `CC(C)C[C@H](NC(=O)[C@H](CC(C)C)NC(=O)[C@H](Cc1c[nH]cn1)NC(=O)[C@H](CC(C)C)NC(=O)[C@H](CO)NC(=O)[C@H](Cc1c[nH]cn1)NC(=O)[C@H](Cc1ccccc1)NC(=O)[C@H](CO)NC(=O)CNC(=O)CNC(=O)[C@H](CCC(=O)O)NC(=O)[C@@H](N)CCC(=O)O)C(=O)N[C@@H](Cc1ccccc1)C(=O)N[C@@H](CCC(=O)O)C(=O)N[C@@H](CCC(=O)O)C(=O)N[C@@H](CCC(=O)O)C(N)=O` [Seq ID No. 56, EEGGSFHSLHLLFEEE], the “solubility in aqueous solution, in words” value in data set [1] is recorded as “more soluble”.

As for `CC(C)C[C@H](NC(=O)[C@H](CC(C)C)NC(=O)[C@H](Cc1c[nH]cn1)NC(=O)[C@H](CC(C)C)NC(=O)[C@H](CO)NC(=O)[C@H](Cc1c[nH]cn1)NC(=O)[C@H](Cc1ccccc1)NC(=O)[C@@H](N)CO)C(=O)N[C@@H](Cc1ccccc1)C(=O)N[C@@H](CCC(=O)O)C(N)=O` [TX301-310, SFHSLHLLFE], the “solubility in aqueous solution, in words” value in data set [1] is “sparingly soluble”.

For the compound `CC[C@H](C)[C@H](NC(=O)[C@@H]1CCCN1C(=O)[C@@H](NC(=O)[C@H](CC(N)=O)NC(=O)[C@@H](NC(=O)[C@H](Cc1ccc(O)cc1)NC(=O)[C@H](CCC(=O)O)NC(=O)[C@H](CCC(=O)O)NC(=O)[C@H](Cc1ccccc1)NC(=O)[C@H](CC(C)C)NC(=O)[C@H](CC(C)C)NC(=O)[C@H](Cc1c[nH]cn1)NC(=O)[C@H](CC(C)C)NC(=O)[C@H](CO)NC(=O)[C@H](Cc1c[nH]cn1)NC(=O)[C@H](Cc1ccccc1)NC(=O)[C@@H](N)CO)[C@@H](C)O)[C@@H](C)CC)C(=O)N[C@@H](CO)C(=O)N[C@@H](CC(C)C)C(=O)N[C@@H](CC(C)C)C(N)=O` [TX301], in data set [1], the “solubility in aqueous solution, in words” value is recorded as “limited solubility in aqueous solutions; also recorded: sparingly soluble”.

FLSEFLHSHL [SCM2, reference compound]: the fold enhancement with Tax-CREB interaction (Table 8, SCM2 0.75 μM, 2.3 nM CREB, Tax without peptide 17.0) worked out at 17.9 fold; with Tax-CREB interaction (Table 8, SCM2 1.50 μM, 2.3 nM CREB, Tax without peptide 17.0) it was 17.8 fold; in the data set with Tax-CREB interaction (Table 8, SCM2 7.50 μM, 2.3 nM CREB, Tax without peptide 17.0), 14.5 fold; in the data set with Tax-CREB interaction (Table 8, SCM2 15.00 μM, 2.3 nM CREB, Tax without peptide 17.0), 9.7 fold; with Tax-CREB interaction (Table 8, SCM2 75.00 μM, 2.3 nM CREB, Tax without peptide 17.0), 3.3 fold; with Tax-CREB interaction (Table 8, SCM2 150.00 μM, 2.3 nM CREB, Tax without peptide 17.0), 1.1 fold.

Turning to HSLHLLFEEY-NH2 [TX303-313, HSLHLLFEEY], the “solubility in aqueous solution, in words” value in data set [1] is on record as “sparingly soluble”.

For “TX313: 20 amino acid Tax peptide beginning at amino acid 313, overlaps TX301 by 8 amino acids”, the “effect on Tax-mediated enhancement of CREB binding to DNA (complex formation), in words” value in the data set with Tax-CREB interaction (EMSA, CREB + Tax + peptide) is “slight enhancement of complex formation at some concentrations”. The fold enhancement in the data set with Tax-CREB interaction (Table 4, TX313 35 μM, 3.4 nM CREB, Tax without peptide 4.48, densitometry) worked out at 5.16 fold; with Tax-CREB interaction (Table 4, TX313 70 μM, 3.4 nM CREB, Tax without peptide 4.48, densitometry) it was 5.60 fold; with Tax-CREB interaction (Table 4, TX313 140 μM, 3.4 nM CREB, Tax without peptide 4.48, densitometry), 4.49 fold. For the same compound, the “dose dependence of the effect on Tax-mediated enhancement, in words” value in the data set with Tax-CREB interaction (titration in EMSA) was “did not have a dose dependent affect; also recorded: no dose dependence”.
